Legend:
Test in all cases: holdup assay
Parameters in all cases: key: below the threshold = too weak to quantify, mostly under pKd 3.1 to 4
[1] = target: Inadl_2, Q8NI35
[2] = target: DLG1_1, Q12959
[3] = target: T1, RADIL, Q96JH8
T1 sequence (Q96JH8 971-1071, limits assumed, looked up): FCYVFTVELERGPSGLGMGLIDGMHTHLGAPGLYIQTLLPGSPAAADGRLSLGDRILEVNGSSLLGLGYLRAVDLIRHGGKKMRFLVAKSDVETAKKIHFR

[4] = target: LAP2, Q96RT1
[5] = target: T2, LIN7B, Q9HAP6
T2 sequence (Q9HAP6 88-185, limits assumed, looked up): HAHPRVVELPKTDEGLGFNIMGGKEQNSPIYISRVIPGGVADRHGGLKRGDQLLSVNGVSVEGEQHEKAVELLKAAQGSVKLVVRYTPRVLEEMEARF

[6] = target: T3, GRIP1_4, Q9Y3R0
T3 sequence (Q9Y3R0 467-571, limits assumed, looked up): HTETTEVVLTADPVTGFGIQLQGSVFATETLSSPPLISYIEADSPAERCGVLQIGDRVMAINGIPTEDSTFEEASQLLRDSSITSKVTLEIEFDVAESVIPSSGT

[7] = target: NOS1, P29475
[8] = target: FRMPD4, Q14CM0
[9] = target: PARD3_3, Q8TEW0
[10] = target: TJP2_1, Q9UDY2
[11] = target: T4, NHERF3_1, Q5T2W1
T4 sequence (Q5T2W1 4-100, limits assumed, looked up): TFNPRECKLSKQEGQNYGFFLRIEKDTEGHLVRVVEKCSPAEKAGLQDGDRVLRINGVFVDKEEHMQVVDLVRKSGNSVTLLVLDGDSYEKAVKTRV

[12] = target: T5, HTRA3, P83110
T5 sequence (P83110 354-453, limits assumed, looked up): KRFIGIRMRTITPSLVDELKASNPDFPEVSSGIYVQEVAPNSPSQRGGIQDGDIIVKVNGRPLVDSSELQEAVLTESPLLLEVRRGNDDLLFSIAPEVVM

[13] = target: T6, LNX2_3, Q8N448
T6 sequence (Q8N448 463-564, limits assumed, looked up): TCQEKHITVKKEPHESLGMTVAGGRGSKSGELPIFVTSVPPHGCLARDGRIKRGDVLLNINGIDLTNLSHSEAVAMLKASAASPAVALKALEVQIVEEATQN

[14] = target: T7, DLG3_2, Q92796
T7 sequence (Q92796 221-321, limits assumed, looked up): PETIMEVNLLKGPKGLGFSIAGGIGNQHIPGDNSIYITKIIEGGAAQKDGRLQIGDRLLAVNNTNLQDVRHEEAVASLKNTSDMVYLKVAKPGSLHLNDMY

[15] = target: T8, MPP2, Q14168
T8 sequence (Q14168 180-250, limits assumed, looked up): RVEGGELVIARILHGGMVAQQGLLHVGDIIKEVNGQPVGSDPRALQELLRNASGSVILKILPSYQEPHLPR

[16] = target: T9, LNX2_2, Q8N448
T9 sequence (Q8N448 334-432, limits assumed, looked up): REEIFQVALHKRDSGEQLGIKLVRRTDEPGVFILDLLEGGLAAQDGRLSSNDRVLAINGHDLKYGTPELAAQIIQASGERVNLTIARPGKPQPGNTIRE

[17] = target: T10, ARHGAP21, Q5T5U3
T10 sequence (Q5T5U3 45-169, limits assumed, looked up): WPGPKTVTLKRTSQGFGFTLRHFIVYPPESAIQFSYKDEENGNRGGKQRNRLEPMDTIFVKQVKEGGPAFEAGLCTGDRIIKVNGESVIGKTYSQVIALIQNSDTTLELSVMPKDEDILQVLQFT

[18] = target: IL16_3, Q14005
[19] = target: T11, GRIP1_5, Q9Y3R0
T11 sequence (Q9Y3R0 568-668, limits assumed, looked up): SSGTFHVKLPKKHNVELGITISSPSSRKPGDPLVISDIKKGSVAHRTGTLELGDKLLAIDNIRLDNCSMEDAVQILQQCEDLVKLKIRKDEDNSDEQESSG

[20] = target: SNX27, Q96L92
[21] = target: MAST2, Q6P0Q8
[22] = target: IL16_4, Q14005
[23] = target: GRIP2_5, Q9C0E4
[24] = target: T12, TIAM2, Q8IVF5
T12 sequence (Q8IVF5 885-986, limits assumed, looked up): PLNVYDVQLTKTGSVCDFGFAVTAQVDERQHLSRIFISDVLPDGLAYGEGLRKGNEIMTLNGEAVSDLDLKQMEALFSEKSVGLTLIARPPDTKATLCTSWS

[25] = target: MAGI2_2, Q86UL8
[26] = plain residues with an end cap or a label only (N-terminal biotin on a linker: ado-ado)
[27] = plain residues with an end cap or a label only (N-terminal biotin on a linker: (peg)3)

Sequence of MAST2, Q6P0Q8 (Q6P0Q8 1099-1202): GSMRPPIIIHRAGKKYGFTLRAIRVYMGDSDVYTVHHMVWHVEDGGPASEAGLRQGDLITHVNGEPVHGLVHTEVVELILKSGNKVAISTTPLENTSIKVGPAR
Sequence of NOS1, P29475 (P29475 9-101): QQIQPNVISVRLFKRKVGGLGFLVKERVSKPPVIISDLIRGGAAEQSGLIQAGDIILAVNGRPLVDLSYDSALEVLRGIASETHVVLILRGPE
Sequence of TJP2_1, Q9UDY2 (Q9UDY2 24-128): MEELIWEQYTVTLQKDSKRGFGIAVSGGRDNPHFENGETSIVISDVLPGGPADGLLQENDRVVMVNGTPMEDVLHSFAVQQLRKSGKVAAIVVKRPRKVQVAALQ
Sequence of IL16_3, Q14005 (Q14005 1107-1207): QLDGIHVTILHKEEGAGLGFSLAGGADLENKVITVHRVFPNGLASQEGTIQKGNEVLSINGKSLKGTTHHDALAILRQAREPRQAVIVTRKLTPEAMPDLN
Sequence of IL16_4, Q14005 (Q14005 1229-1329): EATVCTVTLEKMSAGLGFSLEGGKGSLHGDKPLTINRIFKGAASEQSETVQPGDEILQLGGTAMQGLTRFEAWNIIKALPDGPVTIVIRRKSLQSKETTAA
Sequence of MAGI2_2, Q86UL8 (Q86UL8 410-522): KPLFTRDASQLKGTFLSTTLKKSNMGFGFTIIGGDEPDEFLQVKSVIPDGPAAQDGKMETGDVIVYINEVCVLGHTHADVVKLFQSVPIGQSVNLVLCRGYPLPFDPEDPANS
Sequence of FRMPD4, Q14CM0 (Q14CM0 67-160): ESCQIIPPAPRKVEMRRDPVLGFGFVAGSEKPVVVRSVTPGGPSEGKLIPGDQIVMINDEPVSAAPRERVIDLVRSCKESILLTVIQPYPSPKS
Sequence of LAP2, Q96RT1 (Q96RT1 other isoform, or with tags, fused parts or gaps): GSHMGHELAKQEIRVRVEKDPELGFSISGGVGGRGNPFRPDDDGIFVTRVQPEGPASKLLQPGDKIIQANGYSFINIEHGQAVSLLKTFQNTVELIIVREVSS
Sequence of GRIP2_5, Q9C0E4 (Q9C0E4 544-642): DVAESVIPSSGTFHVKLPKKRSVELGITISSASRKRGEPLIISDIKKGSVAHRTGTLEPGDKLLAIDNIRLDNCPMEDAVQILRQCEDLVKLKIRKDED
Sequence of Inadl_2, Q8NI35 (Q8NI35 238-335): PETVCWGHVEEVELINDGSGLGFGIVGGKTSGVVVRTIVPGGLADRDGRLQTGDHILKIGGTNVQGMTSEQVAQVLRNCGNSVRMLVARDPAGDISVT
Sequence of PARD3_3, Q8TEW0 (Q8TEW0 582-685): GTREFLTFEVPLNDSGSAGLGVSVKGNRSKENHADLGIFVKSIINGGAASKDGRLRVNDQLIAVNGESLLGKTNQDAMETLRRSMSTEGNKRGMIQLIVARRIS

B1: TRIM29, Q14134;Q14134-2 (peptide)
chain: KSGKQTMLVV
pKd [1, 26]: below the threshold
pKd [2, 26]: below the threshold
pKd [3, 26]: 4.46
pKd [4, 26]: below the threshold
pKd [5, 26]: below the threshold
pKd [6, 26]: below the threshold
pKd [7, 26]: below the threshold
pKd [8, 26]: below the threshold
pKd [9, 26]: below the threshold
pKd [10, 26]: below the threshold
pKd [11, 26]: below the threshold
pKd [12, 26]: below the threshold
pKd [13, 26]: below the threshold
pKd [14, 26]: below the threshold
pKd [15, 26]: below the threshold
pKd [16, 26]: 5.19
pKd [17, 26]: 4.14
pKd [18, 26]: below the threshold
pKd [19, 26]: below the threshold

B2: SARS-CoV-E, P59637 (peptide)
chain: NLNSSEGVPDLLV
pKd [1, 27]: below the threshold
pKd [2, 27]: below the threshold
pKd [20, 27]: below the threshold
pKd [3, 27]: below the threshold
pKd [21, 27]: below the threshold
pKd [4, 27]: below the threshold
pKd [22, 27]: below the threshold
pKd [5, 27]: below the threshold
pKd [6, 27]: below the threshold
pKd [7, 27]: below the threshold
pKd [8, 27]: below the threshold
pKd [9, 27]: 4.27
pKd [10, 27]: below the threshold
pKd [11, 27]: below the threshold
pKd [23, 27]: below the threshold
pKd [12, 27]: below the threshold
pKd [24, 27]: below the threshold
pKd [13, 27]: below the threshold
pKd [14, 27]: below the threshold
pKd [15, 27]: below the threshold
pKd [16, 27]: 4.24
pKd [25, 27]: below the threshold
pKd [17, 27]: 3.88
pKd [18, 27]: below the threshold
pKd [19, 27]: below the threshold

B3: SLC34A1, Q06495;Q06495-1 (peptide)
chain: LPAHHNATRL
pKd [1, 26]: below the threshold
pKd [2, 26]: below the threshold
pKd [20, 26]: 4.19
pKd [3, 26]: below the threshold
pKd [21, 26]: 5.47
pKd [4, 26]: below the threshold
pKd [22, 26]: below the threshold
pKd [5, 26]: below the threshold
pKd [6, 26]: below the threshold
pKd [7, 26]: 4.09
pKd [8, 26]: 4.31
pKd [9, 26]: below the threshold
pKd [11, 26]: 5.24
pKd [23, 26]: below the threshold
pKd [12, 26]: below the threshold
pKd [24, 26]: below the threshold
pKd [13, 26]: below the threshold
pKd [14, 26]: below the threshold
pKd [15, 26]: below the threshold
pKd [16, 26]: below the threshold
pKd [17, 26]: 3.99
pKd [18, 26]: below the threshold
pKd [19, 26]: below the threshold

B4: CES3, Q6UWW8 (peptide)
chain: QKNRKAQEDL
pKd [1, 26]: below the threshold
pKd [2, 26]: below the threshold
pKd [20, 26]: below the threshold
pKd [3, 26]: below the threshold
pKd [21, 26]: below the threshold
pKd [4, 26]: below the threshold
pKd [22, 26]: 3.63
pKd [5, 26]: 3.78
pKd [6, 26]: below the threshold
pKd [7, 26]: below the threshold
pKd [8, 26]: below the threshold
pKd [9, 26]: below the threshold
pKd [10, 26]: below the threshold
pKd [11, 26]: below the threshold
pKd [23, 26]: below the threshold
pKd [12, 26]: below the threshold
pKd [24, 26]: 4.08
pKd [13, 26]: below the threshold
pKd [14, 26]: 4.21
pKd [15, 26]: below the threshold
pKd [16, 26]: below the threshold
pKd [25, 26]: below the threshold
pKd [17, 26]: below the threshold
pKd [18, 26]: below the threshold
pKd [19, 26]: below the threshold

B5: ATP2A2, P16615;P16615-3 (peptide)
chain: YLEPVLSSEL
pKd [1, 26]: below the threshold
pKd [2, 26]: below the threshold
pKd [20, 26]: 4.12
pKd [3, 26]: below the threshold
pKd [21, 26]: 5.81
pKd [22, 26]: below the threshold
pKd [6, 26]: below the threshold
pKd [7, 26]: below the threshold
pKd [8, 26]: below the threshold
pKd [9, 26]: below the threshold
pKd [10, 26]: below the threshold
pKd [11, 26]: 5.47
pKd [23, 26]: below the threshold
pKd [12, 26]: below the threshold
pKd [24, 26]: 3.98
pKd [13, 26]: below the threshold
pKd [14, 26]: 4.18
pKd [15, 26]: below the threshold
pKd [16, 26]: below the threshold
pKd [25, 26]: below the threshold
pKd [17, 26]: below the threshold
pKd [18, 26]: below the threshold
pKd [19, 26]: below the threshold

B6: PDLIM4_iso2, P50479;P50479-1 (peptide)
chain: VYPNAKVELV
pKd [1, 26]: below the threshold
pKd [2, 26]: below the threshold
pKd [20, 26]: below the threshold
pKd [3, 26]: 5.24
pKd [21, 26]: below the threshold
pKd [4, 26]: below the threshold
pKd [5, 26]: below the threshold
pKd [6, 26]: below the threshold
pKd [7, 26]: 4.05
pKd [8, 26]: below the threshold
pKd [9, 26]: below the threshold
pKd [10, 26]: below the threshold
pKd [11, 26]: below the threshold
pKd [23, 26]: below the threshold
pKd [24, 26]: below the threshold
pKd [13, 26]: below the threshold
pKd [14, 26]: below the threshold
pKd [15, 26]: below the threshold
pKd [16, 26]: 4.62
pKd [25, 26]: below the threshold
pKd [18, 26]: below the threshold
pKd [19, 26]: below the threshold

Reference: publication PMC9482650, “Quantitative fragmentomics allow affinity mapping of interactomes” (Nature Communications, 2022)
